Data: patent US20070077617
Where a chain is given by its changes, count along the chain named. Numbers in names are those of the source.

B1: OmpT protease variant OmpT D97F (protein)
chain: STETLSFTPDNINADISLGTLSGKTKERVYLAEEGGRKVSQLDWKFNNAAIIKGAINWDLMPQISIGAAGWTTLGSRGGNMVDQDWMDSSNPGTWTFESRHPDTQLNYANEFDLNIKGWLLNEPNYRLGLMAGYQESRYSFTARGGSYIYSSEEGFRDDIGSFPNGERAIGYKQRFKMPYIGLTGSYRYEDFELGGTFKYSGWVESSDNDEHYDPGKRITYRSKVKDQNYYSVAVNAGYYVTPNAKVYVEGAWNRVTNKKGNTSLYDHNNNTSDYSKNGAGIENYNFITTAGLKYTF
B2: OmpT protease variant OmpT D97I (protein)
chain: B1 chain with F97I
B3: OmpT protease variant OmpT D97T (protein)
chain: B1 chain with F97T
B4: OmpT protease variant OmpT D97Q (protein)
chain: B1 chain with F97Q
B5: OmpT protease variant OmpT D97E (protein)
chain: B1 chain with F97E
B6: OmpT protease variant OmpT D97N (protein)
chain: B1 chain with F97N
B7: OmpT protease variant OmpT D97V (protein)
chain: B1 chain with F97V
B8: OmpT protease variant OmpT D97S (protein)
chain: B1 chain with F97S
B9: OmpT protease variant OmpT D97C (protein)
chain: B1 chain with F97C
B10: OmpT protease variant OmpT D97A (protein)
chain: B1 chain with F97A

Sequence of fusion protein PRC (chain, as listed by the source): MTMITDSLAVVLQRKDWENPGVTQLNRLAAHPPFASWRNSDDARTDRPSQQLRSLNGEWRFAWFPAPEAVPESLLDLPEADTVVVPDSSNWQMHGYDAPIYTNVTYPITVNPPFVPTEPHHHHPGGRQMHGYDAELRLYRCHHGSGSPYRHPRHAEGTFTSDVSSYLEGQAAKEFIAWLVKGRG
Sequence of fusion protein PRM (chain, as listed by the source): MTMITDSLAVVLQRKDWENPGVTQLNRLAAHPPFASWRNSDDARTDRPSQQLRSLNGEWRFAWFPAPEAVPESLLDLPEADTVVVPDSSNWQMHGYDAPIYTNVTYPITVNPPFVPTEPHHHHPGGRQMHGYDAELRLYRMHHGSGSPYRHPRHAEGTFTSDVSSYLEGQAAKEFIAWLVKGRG
Sequence of fusion protein PRG (chain, as listed by the source): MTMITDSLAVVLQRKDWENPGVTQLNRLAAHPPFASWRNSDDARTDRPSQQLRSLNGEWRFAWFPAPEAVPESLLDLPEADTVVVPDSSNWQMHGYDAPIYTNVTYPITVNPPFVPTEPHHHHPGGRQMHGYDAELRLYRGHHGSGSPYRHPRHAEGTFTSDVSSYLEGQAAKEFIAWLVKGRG
Sequence of fusion protein PRE (chain, as listed by the source): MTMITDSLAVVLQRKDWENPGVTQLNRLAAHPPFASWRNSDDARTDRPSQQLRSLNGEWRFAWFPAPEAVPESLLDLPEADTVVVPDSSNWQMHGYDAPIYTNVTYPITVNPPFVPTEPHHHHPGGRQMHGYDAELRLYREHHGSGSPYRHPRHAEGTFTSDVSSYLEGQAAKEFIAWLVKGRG
Sequence of fusion protein PRR (chain, as listed by the source): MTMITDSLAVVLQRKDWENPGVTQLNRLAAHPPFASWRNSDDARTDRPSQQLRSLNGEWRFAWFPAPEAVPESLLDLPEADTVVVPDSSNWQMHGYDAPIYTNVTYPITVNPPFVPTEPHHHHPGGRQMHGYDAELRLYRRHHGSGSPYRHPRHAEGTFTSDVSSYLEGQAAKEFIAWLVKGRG
Sequence of fusion protein PRI (chain, as listed by the source): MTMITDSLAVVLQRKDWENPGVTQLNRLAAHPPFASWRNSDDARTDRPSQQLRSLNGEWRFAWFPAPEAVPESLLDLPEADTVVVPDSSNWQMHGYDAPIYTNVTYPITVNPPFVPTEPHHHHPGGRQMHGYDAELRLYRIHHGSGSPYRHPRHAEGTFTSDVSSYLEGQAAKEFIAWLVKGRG
Sequence of fusion protein PRT (chain, as listed by the source): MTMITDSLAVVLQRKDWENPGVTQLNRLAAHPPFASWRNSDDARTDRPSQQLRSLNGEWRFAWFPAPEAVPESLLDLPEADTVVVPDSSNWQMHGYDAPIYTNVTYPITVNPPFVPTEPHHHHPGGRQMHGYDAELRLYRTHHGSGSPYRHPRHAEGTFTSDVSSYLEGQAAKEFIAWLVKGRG
Sequence of fusion protein PRH (chain, as listed by the source): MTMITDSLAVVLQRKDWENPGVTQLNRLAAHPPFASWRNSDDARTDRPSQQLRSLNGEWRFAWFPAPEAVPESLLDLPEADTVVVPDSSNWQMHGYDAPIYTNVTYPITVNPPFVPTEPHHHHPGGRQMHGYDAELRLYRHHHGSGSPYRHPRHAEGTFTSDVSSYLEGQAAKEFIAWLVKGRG
Sequence of fusion protein PRY (chain, as listed by the source): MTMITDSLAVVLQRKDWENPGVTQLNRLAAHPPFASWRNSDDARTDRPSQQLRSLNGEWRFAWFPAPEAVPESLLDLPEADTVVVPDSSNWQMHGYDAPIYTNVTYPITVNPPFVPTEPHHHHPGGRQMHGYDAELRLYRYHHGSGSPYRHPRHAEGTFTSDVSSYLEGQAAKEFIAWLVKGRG
Sequence of fusion protein PRK (chain, as listed by the source): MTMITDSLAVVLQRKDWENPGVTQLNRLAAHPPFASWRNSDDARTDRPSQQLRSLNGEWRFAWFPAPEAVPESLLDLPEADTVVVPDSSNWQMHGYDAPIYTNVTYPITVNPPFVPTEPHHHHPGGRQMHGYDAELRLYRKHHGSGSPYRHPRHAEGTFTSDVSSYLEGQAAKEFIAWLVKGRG
Sequence of fusion protein PRF (chain, as listed by the source): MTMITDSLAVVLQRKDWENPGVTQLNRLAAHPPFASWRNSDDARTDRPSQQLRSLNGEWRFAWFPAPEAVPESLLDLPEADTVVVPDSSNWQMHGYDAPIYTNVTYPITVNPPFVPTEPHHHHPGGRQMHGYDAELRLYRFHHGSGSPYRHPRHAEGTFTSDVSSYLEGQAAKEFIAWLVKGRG
Sequence of fusion protein PRQ (chain, as listed by the source): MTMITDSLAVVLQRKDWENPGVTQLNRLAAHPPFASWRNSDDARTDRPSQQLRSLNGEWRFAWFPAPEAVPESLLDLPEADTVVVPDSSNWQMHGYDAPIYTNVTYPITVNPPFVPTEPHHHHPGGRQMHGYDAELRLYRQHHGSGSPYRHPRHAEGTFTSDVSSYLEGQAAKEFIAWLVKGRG
Sequence of fusion protein PRD (chain, as listed by the source): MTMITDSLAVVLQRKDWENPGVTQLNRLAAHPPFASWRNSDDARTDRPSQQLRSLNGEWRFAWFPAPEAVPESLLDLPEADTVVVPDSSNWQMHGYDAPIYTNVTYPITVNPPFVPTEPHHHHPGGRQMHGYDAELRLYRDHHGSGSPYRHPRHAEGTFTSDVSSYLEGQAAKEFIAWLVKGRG
Sequence of fusion protein PRS (chain, as listed by the source): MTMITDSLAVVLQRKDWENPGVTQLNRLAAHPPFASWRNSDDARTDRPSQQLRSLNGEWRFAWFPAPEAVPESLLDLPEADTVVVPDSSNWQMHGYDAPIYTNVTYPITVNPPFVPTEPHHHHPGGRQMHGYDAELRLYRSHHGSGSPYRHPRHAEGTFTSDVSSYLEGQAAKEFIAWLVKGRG
Sequence of fusion protein PRA (chain, as listed by the source): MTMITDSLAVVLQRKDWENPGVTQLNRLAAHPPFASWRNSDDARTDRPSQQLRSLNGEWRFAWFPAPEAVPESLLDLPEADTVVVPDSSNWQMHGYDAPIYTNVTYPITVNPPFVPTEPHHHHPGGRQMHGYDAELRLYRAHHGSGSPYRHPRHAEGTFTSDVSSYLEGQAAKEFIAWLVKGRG
Sequence of fusion protein PRW (chain, as listed by the source): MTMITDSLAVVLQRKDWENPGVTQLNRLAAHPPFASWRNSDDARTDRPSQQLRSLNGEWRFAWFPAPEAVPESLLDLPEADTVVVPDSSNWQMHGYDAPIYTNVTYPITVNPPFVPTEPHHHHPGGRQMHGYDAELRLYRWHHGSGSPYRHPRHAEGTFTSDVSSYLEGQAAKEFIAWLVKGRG
Sequence of fusion protein PRL (chain, as listed by the source): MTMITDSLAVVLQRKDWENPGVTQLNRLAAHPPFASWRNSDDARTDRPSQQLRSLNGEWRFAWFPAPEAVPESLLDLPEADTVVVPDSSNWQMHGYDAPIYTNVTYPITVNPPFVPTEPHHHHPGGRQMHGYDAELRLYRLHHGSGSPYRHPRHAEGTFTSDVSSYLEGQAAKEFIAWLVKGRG
Sequence of fusion protein PRN (chain, as listed by the source): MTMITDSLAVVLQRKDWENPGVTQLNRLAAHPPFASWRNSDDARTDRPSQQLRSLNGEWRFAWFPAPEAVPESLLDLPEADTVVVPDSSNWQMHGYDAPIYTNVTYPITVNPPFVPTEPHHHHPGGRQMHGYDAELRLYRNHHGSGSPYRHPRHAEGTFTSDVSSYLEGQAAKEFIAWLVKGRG

Protein	relative cleavage efficiency (fusion protein PRR)	relative cleavage efficiency (fusion protein PRI)	relative cleavage efficiency (fusion protein PRL)	relative cleavage efficiency (fusion protein PRE)	relative cleavage efficiency (fusion protein PRT)	relative cleavage efficiency (fusion protein PRK)	relative cleavage efficiency (fusion protein PRS)	relative cleavage efficiency (fusion protein PRY)	relative cleavage efficiency (fusion protein PRM)	relative cleavage efficiency (fusion protein PRQ)	relative cleavage efficiency (fusion protein PRN)	relative cleavage efficiency (fusion protein PRF)	relative cleavage efficiency (fusion protein PRD)	relative cleavage efficiency (fusion protein PRG)	relative cleavage efficiency (fusion protein PRH)	relative cleavage efficiency (fusion protein PRP)	relative cleavage efficiency (fusion protein PRW)	relative cleavage efficiency (fusion protein PRA)	relative cleavage efficiency (fusion protein PRC)
B1	< 3%	< 3%	less than 3%	less than 3%	< 3%	< 3%	< 3%	< 3%	< 3%	less than 3%	< 3%	< 3%	less than 3%	less than 3%	less than 3%	less than 3%	less than 3%	3.1%	< 3%
B2	less than 3.0%	less than 3.0%	less than 3.0%	less than 3.0%	less than 3.0%	less than 3.0%	less than 3.0%	less than 3.0%	less than 3.0%	less than 3.0%	less than 3.0%	less than 3.0%	less than 3.0%	less than 3.0%	less than 3.0%	less than 3.0%	less than 3.0%	less than 3.0%	less than 3.0%
B3	< 3%	< 3%	less than 3%	less than 3%	< 3%	< 3%	7.4%	< 3%	< 3%	less than 3%	< 3%	3.7%	less than 3%	less than 3%	less than 3%	less than 3%	less than 3%	6.8%	4.6%
B4	< 3%	< 3%	less than 3%	less than 3%	< 3%	< 3%	4.4%	< 3%	< 3%	less than 3%	< 3%	< 3%	less than 3%	less than 3%	less than 3%	less than 3%	less than 3%	4%	4.1%
B5	49%	< 3%	less than 3%	less than 3%	< 3%	39%	7.2%	< 3%	< 3%	less than 3%	< 3%	3.4%	less than 3%	less than 3%	less than 3%	less than 3%	less than 3%	6.5%	6.9%
B6	< 3%	< 3%	less than 3%	less than 3%	< 3%	< 3%	4.1%	< 3%	< 3%	less than 3%	< 3%	< 3%	less than 3%	less than 3%	less than 3%	less than 3%	less than 3%	3.8%	< 3%
B7	less than 3.0%	less than 3.0%	less than 3.0%	less than 3.0%	less than 3.0%	less than 3.0%	less than 3.0%	less than 3.0%	less than 3.0%	less than 3.0%	less than 3.0%	less than 3.0%	less than 3.0%	less than 3.0%	less than 3.0%	less than 3.0%	less than 3.0%	less than 3.0%	less than 3.0%
B8	< 3%	< 3%	less than 3%	less than 3%	< 3%	< 3%	< 3%	< 3%	< 3%	less than 3%	< 3%	< 3%	less than 3%	less than 3%	less than 3%	less than 3%	less than 3%	4%	3.1%
B9	4%	< 3%	less than 3%	less than 3%	< 3%	3.9%	5.6%	< 3%	< 3%	less than 3%	< 3%	4.6%	less than 3%	less than 3%	less than 3%	less than 3%	less than 3%	6.2%	4.8%
B10	< 3%	< 3%	less than 3%	less than 3%	< 3%	< 3%	< 3%	< 3%	< 3%	less than 3%	< 3%	< 3%	less than 3%	less than 3%	less than 3%	less than 3%	less than 3%	3.8%	< 3%
